The values that follow come from article PMC9398005, “A Drosophila Su(H) model of Adams-Oliver Syndrome reveals cofactor titration as a mechanism underlying developmental defects”.

Data set [1] deals with T1, Rbpj WT (core) (mouse, UniProt P31266 53-474). The data set is described as follows: EMSA; ITC: 50 mM sodium phosphate, 150 mM NaCl, 10 C (pH not stated); EMSA purified: 3.4 nM probe, 10 min room temperature; EMSA IVT: 10 mM Tris-HCl pH 7.5, 100 mM NaCl, 0.1 mM EDTA, 0.5 mM DTT, 4% glycerol, poly(dI-dC). To be noted: protein: recombinant; tags: GST removed by PreScission (pGEX-6P1); label: IRDye-700 at 5' end of strand 2; blunt.

Another data set deals with Flag-Rbpj WT full length (mouse, UniProt P31266 1-526). Kind of data set: EMSA; poly(dI-dC); single and double occupancy; anti-Flag supershift; ITC: 50 mM sodium phosphate, 150 mM NaCl, 10 C (pH not stated); EMSA purified: 3.4 nM probe, 10 min room temperature; EMSA IVT: 10 mM Tris-HCl pH 7.5, 100 mM NaCl, 0.1 mM EDTA, 0.5 mM DTT, 4% glycerol, poly(dI-dC). Particulars: protein: ivt; tags: Flag; label: 32P; 5' overhang 4 nt both ends. A general note: A gel shift assay detects complexes by their altered migration in electrophoresis.

In another data set the target is Rbpj E89G (mouse, UniProt P31266 53-474, E89G). Kind of data set: ITC; 10 C; ITC: 50 mM sodium phosphate, 150 mM NaCl, 10 C (pH not stated); EMSA purified: 3.4 nM probe, 10 min room temperature; EMSA IVT: 10 mM Tris-HCl pH 7.5, 100 mM NaCl, 0.1 mM EDTA, 0.5 mM DTT, 4% glycerol, poly(dI-dC). Particulars: protein: recombinant; tags: GST removed by PreScission (pGEX-6P1); blunt.

For data set [2], the target named is T1, Rbpj WT (core). The data set is described as above. Particulars: protein: recombinant; tags: GST removed by PreScission (pGEX-6P1); blunt.
The next data set deals with Rbpj K195E (mouse, UniProt P31266 53-474, K195E). The description is as above. To be noted: protein: recombinant; tags: GST removed by PreScission (pGEX-6P1); blunt.
Sequence of Rbpj K195E (P31266 53-474 K195E): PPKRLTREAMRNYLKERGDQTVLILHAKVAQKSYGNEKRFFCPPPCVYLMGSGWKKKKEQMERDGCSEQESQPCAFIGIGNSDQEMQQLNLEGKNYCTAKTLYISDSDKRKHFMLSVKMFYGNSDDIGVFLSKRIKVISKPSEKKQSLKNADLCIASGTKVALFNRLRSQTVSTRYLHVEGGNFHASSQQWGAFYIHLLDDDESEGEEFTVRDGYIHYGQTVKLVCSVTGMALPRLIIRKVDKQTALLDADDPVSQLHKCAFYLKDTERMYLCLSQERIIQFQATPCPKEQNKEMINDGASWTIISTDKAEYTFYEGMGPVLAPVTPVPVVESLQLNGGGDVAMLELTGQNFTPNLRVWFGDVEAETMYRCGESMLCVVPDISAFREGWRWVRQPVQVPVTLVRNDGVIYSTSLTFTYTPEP

T1 sequence (P31266 53-474): as the sequence (P31266 53-474 K195E) above, with E143K counted along it
Sequence of Rbpj E89G (P31266 53-474 E89G): as the sequence (P31266 53-474 K195E) above, with E37G, E143K counted along it
Sequence of Flag-Rbpj WT full length (P31266 whole entry): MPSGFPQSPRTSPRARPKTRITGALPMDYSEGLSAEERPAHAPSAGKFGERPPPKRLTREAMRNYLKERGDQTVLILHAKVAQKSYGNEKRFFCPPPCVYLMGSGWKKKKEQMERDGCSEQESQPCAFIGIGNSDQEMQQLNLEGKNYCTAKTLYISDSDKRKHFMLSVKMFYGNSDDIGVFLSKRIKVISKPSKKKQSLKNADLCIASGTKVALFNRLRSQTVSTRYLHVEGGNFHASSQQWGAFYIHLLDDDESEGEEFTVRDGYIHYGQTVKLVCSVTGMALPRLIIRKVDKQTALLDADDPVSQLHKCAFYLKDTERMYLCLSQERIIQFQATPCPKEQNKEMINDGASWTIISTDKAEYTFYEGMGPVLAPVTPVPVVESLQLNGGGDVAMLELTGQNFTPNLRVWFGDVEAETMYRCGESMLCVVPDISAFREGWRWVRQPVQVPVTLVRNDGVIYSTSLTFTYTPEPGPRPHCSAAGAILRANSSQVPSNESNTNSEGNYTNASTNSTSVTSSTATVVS

B1: EMSA high affinity CSL probe (dsDNA)
DNA 1: CGAACGAGGCAAACCTAGGCTAGAGGCACCGTGGGAAACTAGTGCGGGCGTGGCT
DNA 2: AGCCACGCCCGCACTAGTTTCCCACGGTGCCTCTAGCCTAGGTTTGCCTCGTTCG
For B1, the binding result with Rbpj WT (core) [1] is recorded as “binds”.

B2: EMSA probe with 2 RBPJ sites (dsDNA)
DNA 1: CCTGGAACTATTTTCCCACGGTGCCCTTCCGCCCATTTTCCCACGAGTCG
DNA 2: CTCGCGACTCGTGGGAAAATGGGCGGAAGGGCACCGTGGGAAAATAGTTC
Consider B2, for which, in the data set with Flag-Rbpj WT full length, the binding result is “binds”.

B3: ITC 20-mer CSL duplex (dsDNA)
DNA 1: GGCACCGTGGGAAACTAGTG
DNA 2: CACTAGTTTCCCACGGTGCC
The term Kd denotes a measure of binding affinity in units of concentration. B3: the dissociation constant Kd with Rbpj E89G was found to be 440 ± 86.8 nM; with Rbpj WT (core) [2], 74 ± 10.8 nM; with Rbpj K195E it was 1160 ± 258 nM.
